{"source": "patent US20230391828A1", "about": "“REGULATORS OF CELL DIVISION” (TECHNISCHE UNIVERSITÄT DRESDEN, priority 2020, published 2023)", "note": "Entries after “also recorded” stand apart in the source; their conditions may differ. Bridge positions count the residues as written; N and C are the ends. Square brackets hold non-standard residues; d marks the D form. 2Nal = N[C@@H](Cc1ccc2ccccc2c1)C(=O)O; R8 = C=CCCCCCC[C@@](C)(N)C(=O)O; S5 = C=CCCC[C@](C)(N)C(=O)O"}
{"biological_target": "T1, APC/C (Homo sapiens, UniProt Q9NYG5)", "T1 construct": "made in house; host or cells: SF9 insect cells (baculovirus)", "test": "In vitro APC/C ubiquitination assay driven by the E2 enzyme UBE2C, fluorophore-labelled securin substrate", "type": "biochemical", "conditions": "100 μM, UBE2C, reaction time 45 min", "method": "(§1) Proteins were separated by SDS-PAGE electrophoresis using precast Bolt 4-12% Bis-Tris Plus protein gels (Thermo Fisher Scientific) and Criterion XT Bis-Tris Midi Protein Gels (Bio-Rad). In different experiments, various conditions were used: in vitro APC/C ubiquitination assays—165 V, 40 min, SDS-MES running buffer (50 mM MES, 50 mM Tris base, 0.1% SDS, 1 mM EDTA, pH 7.3; Thermo Fisher Scientific); in vitro APC/C ubiquitination assays determining KM—165V, 1 h, SDS-MOPS running buffer (50 mM MOPS, 50 mM Tris base, 0.1% SDS, 1 mM EDTA, pH 7.7; Thermo Fisher Scientific); pull-down binding assay—165 V, 35 min, SDS-MES running buffer.\n(§2) APC/C-dependent ubiquitination reactions were performed at 30° C. in 30 mM HEPES pH 7.4, 175 mM NaCl, 8 mM MgCl2, 0.05% Tween-20, 1 mM DTT and 5% glycerol and contained 20 nM recombinant APC/C (note, for testing the first generation of inhibitors, APC/C and Cdc20 immunoprecipitated from mitotic HeLa K cells was used), 340 nM Cdc20, 46 nM GST-UBA1, 340 nM UBE2C (alternatively 400 nM UBE2D1, 280 nM UBE2S), 21 μM His6-ubiquitin or if it is indicated 21 μM methylated-ubiquitin (BostonBiochem), 2.6 mM ATP, 10 mM phosphocreatine and 11 μM creatine kinase. As substrates, 35 nM fluorophore-labeled ubiquitin-cyclin B and 50 nM fluorophore-labeled securin were standardly used (fluorophore IRDye 800CW (LI-COR) was used for labelling). In case of KM and kcat determination, 50, 100, 250, 500, 750, 1000, 1250, 2500 and 5000 nM fluorophore-labelled securin was used. The reaction was done in the volume of 15 μl, it was quenched after the indicated time with LDS sample buffer (Thermo Fisher Scientific) supplemented with 100 mM DTT and subjected to SDS-PAGE. Detection of fluorescently labelled substrates was done by quantitative near-infrared scanning system Odyssey."}
{"substance": "cyclo(1,14)-[L 2-NaI L W K l E W E K R K p P] (cyclo(L[2Nal]LWK[dL]EWEKRK[dP]P); SMILES CC(C)C[C@@H]1NC(=O)[C@H](Cc2ccc3ccccc3c2)NC(=O)[C@H](CC(C)C)NC(=O)[C@@H]2CCCN2C(=O)[C@H]2CCCN2C(=O)[C@H](CCCCN)NC(=O)[C@H](CCCNC(=N)N)NC(=O)[C@H](CCCCN)NC(=O)[C@H](CCC(=O)O)NC(=O)[C@H](Cc2c[nH]c3ccccc23)NC(=O)[C@H](CCC(=O)O)NC(=O)[C@@H](CC(C)C)NC(=O)[C@H](CCCCN)NC(=O)[C@H](Cc2c[nH]c3ccccc23)NC1=O) [G2-4]", "inhibition of APC/C activity in vitro (ubiquitinated securin)": "the most potent"}
{"substance": "Ac-cyclo(2,11)-RCHWGPRTFWCR—NH2 (Ac-RCHWGPRTFWCR-NH2; disulfide 2-11; SMILES CC(=O)N[C@@H](CCCNC(=N)N)C(=O)N[C@H]1CSSC[C@@H](C(=O)N[C@@H](CCCNC(=N)N)C(N)=O)NC(=O)[C@H](Cc2c[nH]c3ccccc23)NC(=O)[C@H](Cc2ccccc2)NC(=O)[C@H]([C@@H](C)O)NC(=O)[C@H](CCCNC(=N)N)NC(=O)[C@@H]2CCCN2C(=O)CNC(=O)[C@H](Cc2c[nH]c3ccccc23)NC(=O)[C@H](Cc2c[nH]cn2)NC1=O) [G1-3]", "inhibition of APC/C activity in vitro (ubiquitinated securin)": "the most potent molecule from items (b)-(e); also recorded: the most potent molecule from item (b)"}
{"substance": "Ac-cyclo(3,13)-THCDDPETWRWNCQRV-NH2 (Ac-THCDDPETWRWNCQRV-NH2; disulfide 3-13; SMILES CC(=O)N[C@H](C(=O)N[C@@H](Cc1c[nH]cn1)C(=O)N[C@H]1CSSC[C@@H](C(=O)N[C@@H](CCC(N)=O)C(=O)N[C@@H](CCCNC(=N)N)C(=O)N[C@H](C(N)=O)C(C)C)NC(=O)[C@H](CC(N)=O)NC(=O)[C@H](Cc2c[nH]c3ccccc23)NC(=O)[C@H](CCCNC(=N)N)NC(=O)[C@H](Cc2c[nH]c3ccccc23)NC(=O)[C@H]([C@@H](C)O)NC(=O)[C@H](CCC(=O)O)NC(=O)[C@@H]2CCCN2C(=O)[C@H](CC(=O)O)NC(=O)[C@H](CC(=O)O)NC1=O)[C@@H](C)O) [G1-7]", "inhibition of APC/C activity in vitro (ubiquitinated securin)": "the most potent"}
{"substance": "cyclo(1,14)-[T F L W K W E W T K R K p P] (cyclo(TFLWKWEWTKRK[dP]P); SMILES CC(C)C[C@@H]1NC(=O)[C@H](Cc2ccccc2)NC(=O)[C@H]([C@@H](C)O)NC(=O)[C@@H]2CCCN2C(=O)[C@H]2CCCN2C(=O)[C@H](CCCCN)NC(=O)[C@H](CCCNC(=N)N)NC(=O)[C@H](CCCCN)NC(=O)[C@H]([C@@H](C)O)NC(=O)[C@H](Cc2c[nH]c3ccccc23)NC(=O)[C@H](CCC(=O)O)NC(=O)[C@H](Cc2c[nH]c3ccccc23)NC(=O)[C@H](CCCCN)NC(=O)[C@H](Cc2c[nH]c3ccccc23)NC1=O) [G2-8]", "inhibition of APC/C activity in vitro (ubiquitinated securin)": "inhibit APC/C in vitro the most effectively compared to other molecules of item (f)"}
{"biological_target": "T1, APC/C", "test": "In vitro APC/C ubiquitination assay driven by the E2 enzyme UBE2C, fluorophore-labelled securin substrate", "type": "biochemical", "conditions": "100 μM, UBE2C, reaction time 45 min, 3 independent assays", "method": "as §1, §2"}
{"substance": "Ac-cyclo(4,11)-EWWZKLEIQRXRRA-NH2 (Ac-EWW[R8]KLEIQR[S5]RRA-NH2; staple 4-11; SMILES CC[C@H](C)[C@@H]1NC(=O)[C@H](CCC(=O)O)NC(=O)[C@H](CC(C)C)NC(=O)[C@H](CCCCN)NC(=O)[C@](C)(NC(=O)[C@H](Cc2c[nH]c3ccccc23)NC(=O)[C@H](Cc2c[nH]c3ccccc23)NC(=O)[C@H](CCC(=O)O)NC(C)=O)CCCCCCC=CCCC[C@@](C)(C(=O)N[C@@H](CCCNC(=N)N)C(=O)N[C@@H](CCCNC(=N)N)C(=O)N[C@@H](C)C(N)=O)NC(=O)[C@H](CCCNC(=N)N)NC(=O)[C@H](CCC(N)=O)NC1=O) [G3-4] [listing 1 of 2 here]", "inhibition of APC/C activity in vitro compared with TAME": "inhibit APC/C in vitro more efficiently than TAME"}
{"substance": "Ac-cyclo(5,9)-RWPQXIKDXQVRWW-NH2 (Ac-RWPQ[S5]IKD[S5]QVRWW-NH2; staple 5-9; SMILES CC[C@H](C)[C@@H]1NC(=O)[C@@](C)(NC(=O)[C@H](CCC(N)=O)NC(=O)[C@@H]2CCCN2C(=O)[C@H](Cc2c[nH]c3ccccc23)NC(=O)[C@H](CCCNC(=N)N)NC(C)=O)CCCC=CCCC[C@@](C)(C(=O)N[C@@H](CCC(N)=O)C(=O)N[C@H](C(=O)N[C@@H](CCCNC(=N)N)C(=O)N[C@@H](Cc2c[nH]c3ccccc23)C(=O)N[C@@H](Cc2c[nH]c3ccccc23)C(N)=O)C(C)C)NC(=O)[C@H](CC(=O)O)NC(=O)[C@H](CCCCN)NC1=O) [G3-3] [listing 1 of 2 here]", "inhibition of APC/C activity in vitro compared with TAME": "inhibit APC/C in vitro more efficiently than TAME"}
{"test_system": "APC/C", "test": "Ubiquitinated securin (Mean ± SD)", "conditions": "100 µM", "description": "Table printed on a drawing sheet, Figure 6\nHead of the field: Ubiquitinated securin (Mean ± SD)", "units": {"Ubiquitinated securin (Mean ± SD)": "%"}}
{"substance": "Ac-cyclo(4,11)-EWWZKLELQRXRRA-NH2 (Ac-EWW[R8]KLELQR[S5]RRA-NH2; staple 4-11; SMILES CC(=O)N[C@@H](CCC(=O)O)C(=O)N[C@@H](Cc1c[nH]c2ccccc12)C(=O)N[C@@H](Cc1c[nH]c2ccccc12)C(=O)N[C@]1(C)CCCCCCC=CCCC[C@@](C)(C(=O)N[C@@H](CCCNC(=N)N)C(=O)N[C@@H](CCCNC(=N)N)C(=O)N[C@@H](C)C(N)=O)NC(=O)[C@H](CCCNC(=N)N)NC(=O)[C@H](CCC(N)=O)NC(=O)[C@H](CC(C)C)NC(=O)[C@H](CCC(=O)O)NC(=O)[C@H](CC(C)C)NC(=O)[C@H](CCCCN)NC1=O) [G3-5]", "Ubiquitinated securin (Mean ± SD)": "6.1 ± 7"}
{"substance": "Ac-cyclo(4,11)-EWWZKLEIQRXRRA-NH2 (Ac-EWW[R8]KLEIQR[S5]RRA-NH2; staple 4-11; SMILES CC[C@H](C)[C@@H]1NC(=O)[C@H](CCC(=O)O)NC(=O)[C@H](CC(C)C)NC(=O)[C@H](CCCCN)NC(=O)[C@](C)(NC(=O)[C@H](Cc2c[nH]c3ccccc23)NC(=O)[C@H](Cc2c[nH]c3ccccc23)NC(=O)[C@H](CCC(=O)O)NC(C)=O)CCCCCCC=CCCC[C@@](C)(C(=O)N[C@@H](CCCNC(=N)N)C(=O)N[C@@H](CCCNC(=N)N)C(=O)N[C@@H](C)C(N)=O)NC(=O)[C@H](CCCNC(=N)N)NC(=O)[C@H](CCC(N)=O)NC1=O) [G3-4] [listing 2 of 2 here]", "Ubiquitinated securin (Mean ± SD)": "4.5 ± 7"}
{"substance": "Ac-cyclo(5,9)-RWPQXIKDXQVRWW-NH2 (Ac-RWPQ[S5]IKD[S5]QVRWW-NH2; staple 5-9; SMILES CC[C@H](C)[C@@H]1NC(=O)[C@@](C)(NC(=O)[C@H](CCC(N)=O)NC(=O)[C@@H]2CCCN2C(=O)[C@H](Cc2c[nH]c3ccccc23)NC(=O)[C@H](CCCNC(=N)N)NC(C)=O)CCCC=CCCC[C@@](C)(C(=O)N[C@@H](CCC(N)=O)C(=O)N[C@H](C(=O)N[C@@H](CCCNC(=N)N)C(=O)N[C@@H](Cc2c[nH]c3ccccc23)C(=O)N[C@@H](Cc2c[nH]c3ccccc23)C(N)=O)C(C)C)NC(=O)[C@H](CC(=O)O)NC(=O)[C@H](CCCCN)NC1=O) [G3-3] [listing 2 of 2 here]", "Ubiquitinated securin (Mean ± SD)": "5.1 ± 6"}
{"substance": "Ac-cyclo(5,9)-RWPQXKWDXQVRRW-NH2 (Ac-RWPQ[S5]KWD[S5]QVRRW-NH2; staple 5-9; SMILES CC(=O)N[C@@H](CCCNC(=N)N)C(=O)N[C@@H](Cc1c[nH]c2ccccc12)C(=O)N1CCC[C@H]1C(=O)N[C@@H](CCC(N)=O)C(=O)N[C@@]1(C)CCCC=CCCC[C@@](C)(C(=O)N[C@@H](CCC(N)=O)C(=O)N[C@H](C(=O)N[C@@H](CCCNC(=N)N)C(=O)N[C@@H](CCCNC(=N)N)C(=O)N[C@@H](Cc2c[nH]c3ccccc23)C(N)=O)C(C)C)NC(=O)[C@H](CC(=O)O)NC(=O)[C@H](Cc2c[nH]c3ccccc23)NC(=O)[C@H](CCCCN)NC1=O) [G3-1]", "Ubiquitinated securin (Mean ± SD)": "15.7 ± 8"}
